Where two headings read alike, the source gives them in different places.
Columns and labels:
[1] = test system: FIXgla-PC carboxylation in HEK 293 cells; assay type: cell-based, human; details: for inhibition of FIXgla-PC carboxylation by 2 μM warfarin: 5 μM KO as substrate
[2] = test system: FIXgla-PC carboxylation in AV12 cells
[3] = test system: carboxylation of FIXgla-PC reporter protein in HEK293 cells (reduction of KO to vitamin K); experiment: Cell-based VKOR activity assay: recombinant VKOR/VKORH expressed in FIXgla-PC/HEK293 cells with KO and warfarin, carboxylated reporter by ELISA; set-up: species or system human; details: for carboxylation of reporter protein by human VKOR cysteine mutants: Y139F background, HEK293 (FIG. 13); for carboxylation of reporter protein by human VKOR cysteine mutants / support of carboxylation of the reporter protein with KO as substrate: 4 μM warfarin; for activity in the in vivo assay: cysteine mutants of VKOR-Y139F; for activity relative to MT-VKORH: KO as substrate, FIXgla-PC/HEK293 (FIG. 21B); for support of carboxylation of the reporter protein with KO as substrate: 48 h (FIG. 15B)
[4] = test system: carboxylation of FIXgla-PC reporter protein in AV12 cells (reduction of vitamin K to KH2); experiment: Cell-based VKOR activity assay in FIXgla-PC/AV12 or FIXgla-PC/VKOR-Y139F/AV12 cells, carboxylated reporter by ELISA; set-up: species or system Syrian golden hamster; details: for ability to reduce vitamin K to KH2 compared with MT-VKORH: FIXgla-PC/VKOR-Y139F/AV12 (FIG. 21C); for activity in reducing vitamin K to KH2 to support carboxylation: transient expression in FIXgla-PC/VKOR-Y139F/AV12, KO and warfarin (FIG. 19A)
[5] = Activity of warfarin-resistant Y139F human VKOR relative to wild-type human VKOR
[6] = literature refs 18, 25; cited from earlier work
[7] = previous in vitro results; cited from earlier work

O=c1oc2ccccc2c(O)c1Cc1c(O)c2ccccc2oc1=O [dicoumarol]
reporter protein carboxylated ([1]; 20 μM dicoumarol, HEK293, vitamin K): 60% | inhibition of reporter protein carboxylation by dicoumarol ([1]; KO as vitamin K source, HEK293): significantly inhibited | inhibition of reporter protein carboxylation by dicoumarol ([1]; cells fed vitamin K, HEK293): only minimal inhibition | decrease of carboxylation of the reporter protein ([1]; vitamin K as substrate, dicoumarol): ~20% | inhibition of reporter protein carboxylation by dicoumarol ([2]; vitamin K present, AV12): completely inhibited

CC1=C(C/C=C(\C)CCC[C@H](C)CCC[C@H](C)CCCC(C)C)C(=O)c2ccccc2C1=O [vitamin K, Vitamin K1]
increase in secretion of carboxylated reporter protein compared to no additions ([1]; 11 μM vitamin K or 5 μM KO, HEK293): approximately 25 fold | vitamin K concentration at which carboxylation occurred maximally ([1]; absence of warfarin, HEK293, 48 h): 1 µM | vitamin K concentration at which maximal carboxylation was detected ([1]; presence of 2 μM warfarin, HEK293, 48 h): 22 µM | vitamin K concentration at which maximum carboxylation of FIXgla-PC occurs ([2]; AV12 cells): 2.5 µM

CC(=O)CC(c1ccccc1)c1c(O)c2ccccc2oc1=O (stereo not drawn) [warfarin]
carboxylated reporter protein detected in the medium in the presence of warfarin ([1]; 1 μM vitamin K, 2 μM warfarin, HEK293): less than 20% | carboxylation of reporter protein by endogenous VKOR at 4 μM warfarin ([1]; 4 μM warfarin, HEK293): completely abolished | inhibition of FIXgla-PC carboxylation by 2 μM warfarin ([1]; 2 μM warfarin, HEK293): completely inhibited | inhibition of FIXgla-PC carboxylation by 2 μM warfarin ([1]; 2 μM warfarin, HEK293, listed as Warfarin): eliminated KO-supported carboxylation | levels of carboxylated protein in the presence of warfarin, cells fed vitamin K ([1]; 11 μM vitamin K as substrate, HEK293): unaffected | IC50 ([1]; Homo sapiens, KO (5 μM) as substrate, 48 h, HEK293, read-out: warfarin concentration giving 50% inhibition of FIXgla-PC carboxylation): 100 nM | effect of warfarin on reporter protein carboxylation ([2]; AV12 stably over expressing VKOR-Y139F, 5 μM KO, 2 μM warfarin): abolished reporter protein carboxylation | inhibition of production of carboxylated reporter protein by warfarin ([2]; vitamin K as substrate, AV12): significantly inhibited | residual activity ([2]; vitamin K as substrate, warfarin, AV12 (FIG. 4A)): ~20%

B1: VKOR-Y139F: human VKOR rendered warfarin resistant by Y139F mutation; control (protein, UniProt Q9BQB6 1-163, looked up, variant Y139F)
Vitamin K epoxide reductase …: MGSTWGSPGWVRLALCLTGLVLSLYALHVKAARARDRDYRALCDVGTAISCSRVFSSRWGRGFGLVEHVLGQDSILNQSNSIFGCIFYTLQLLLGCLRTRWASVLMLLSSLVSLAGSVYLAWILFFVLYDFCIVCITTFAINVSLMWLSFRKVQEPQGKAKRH
carboxylation of reporter protein by human VKOR cysteine mutants [3]: restored | increase of carboxylated reporter protein compared to the control ([3]; transient expression, 5 μM KO, 2 μM warfarin, HEK293, control empty vector): ~20 fold | increase of reporter protein carboxylation by over-expression ([4]; stable expression in AV12, 5 μM KO, no warfarin (FIG. 7B)): approximately two-fold | carboxylated reporter protein secreted ([4]; transient expression in FIXgla-PC/AV12, 5 μM KO, 2 μM warfarin (FIG. 7A)): no carboxylated reporter protein was secreted | support of reporter protein carboxylation ([4]; transient expression in FIXgla-PC/AV12 not stably expressing VKOR-Y139F, KO and warfarin (FIG. 19B)): did not support carboxylation of the reporter protein | reduction in the activity of human VKOR caused by the Y139F mutation [5]: approximately 50% | fraction of wild-type VKOR activity observed ([5]; Y139F human VKOR): About 50% | fraction of wild-type activity [6]: ~40%

B2: C16A: warfarin resistant human VKOR (Y139F) with C16 mutated to alanine (protein, UniProt Q9BQB6 1-163, looked up, variant C16A)
Vitamin K epoxide reductase …: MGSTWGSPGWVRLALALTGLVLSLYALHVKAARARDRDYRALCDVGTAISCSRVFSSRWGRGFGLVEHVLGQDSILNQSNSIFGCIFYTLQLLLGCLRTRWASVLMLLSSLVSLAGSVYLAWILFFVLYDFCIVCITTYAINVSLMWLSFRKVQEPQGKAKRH
activity in the in vivo assay ([3]; 5 μM KO, 4 μM warfarin (FIG. 17A)): no effect on activity | activity in the in vitro assay [7]: ~40%

B3: C43A: warfarin resistant human VKOR (Y139F) with C43 mutated to alanine (protein, UniProt Q9BQB6 1-163, looked up, variant C43A)
Vitamin K epoxide reductase …: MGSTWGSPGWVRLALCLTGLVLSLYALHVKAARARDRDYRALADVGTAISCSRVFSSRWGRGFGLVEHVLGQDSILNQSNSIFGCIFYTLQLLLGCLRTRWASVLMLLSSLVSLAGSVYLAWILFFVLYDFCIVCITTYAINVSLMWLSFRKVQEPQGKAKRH
carboxylation of reporter protein by human VKOR cysteine mutants [3]: dramatically decreased activity | activity in the in vivo assay ([3]; 5 μM KO, 4 μM warfarin (FIGS. 17A-B)): ~5% | activity in the in vitro assay [7]: ~30%

B4: SA-VKORH: Salinispora tropica CNB-440 VKORH, SEQ ID NO:24 (protein)
chain: MTTTANRPVTTPAERHFLAAVTAWVLTIGGAVGLLAAAALTVEKINLLADPGYVPTCSINPILSCGSVMNTPQAAVFGFPNPLLGIAGFAVVTTLGVTLLATGHLPRWMWLGLQGGVTFGVVFVHWLIYQSLYVIGALCPYCMVVWAVTIPIFLYTTLQTLRDNTTALPRALRRVTERVARYHSLVLVVWAAFVVVVILHRFWDYWSTLG
modifications: Salinispora tropica CNB-440
activity relative to MT-VKORH [3]: 30% | ability to reduce vitamin K to KH2 compared with MT-VKORH [4]: higher than the KO to vitamin K reduction

B5: CO-VKORH: Corynebacterium jeikeium K411 VKORH, SEQ ID NO:23 (protein, listed as Corynebacterium jeikeium)
chain: MWVWWGREGVSNKESEHMNGLGATKRFGYTFLVLSTIGLIFSALIMHDKVQMALDPNFEPACTFNEVISCTDVMASDQAATFGFANPFIGMIGFPVMMTLAVMLIVGAKLPRWIWYCALAGLAFGVAFVHWLAYSAIYSIGALCPYCMAVWAATLPMFVMTLVHIQREKRREAGEDVAHSALGMPLVVIIAWFLAFTALILDQFVF
activity relative to MT-VKORH [3]: 70% | ability to reduce vitamin K to KH2 compared with MT-VKORH [4]: higher than the KO to vitamin K reduction

B6: SY-VKORH: Synechococcus sp. VKORH, SEQ ID NO:21 (protein)
chain: MASYLKLKAQEETWLQRHSRLILAILAGLGSLLTAYLTYTKLTEQPAAFCTGDGGCDLVLSSRWAEFLGIPTAAVGLLGFLGVLALAVLPDGLPLVKRWRWPALFGLVSAMTAFEMYMLYLMVAVLRQFCMYCTTAIILVAGLGLVTVLGHRWLDGGKLAFSYILVAFLTLVTTIGVYANQVPPPSPLAVGLAAHLRQIGGTMYGAYWCPHCQDQKELFGAAFDQVPYVECSPNGPGTPQAQECTEAGITSYPTWIINGRTYTGVRSLEALAVASGYPLEEGR
modifications: Synechococcus sp. JA-2-3B′a(2-13)
support of carboxylation of the reporter protein with KO as substrate ([3]; 5 μM KO): only MT-VKORH supported carboxylation | activity in reducing vitamin K to KH2 to support carboxylation [4]: no significant activity

B7: RO-VKORH: Roseiflexus sp. RS-1 VKORH, SEQ ID NO:20 (protein)
chain: MRRFLLTLIVSCMLTLSLSVASAAATVRAVLFYSPRCGHCHMVISEHLPPLQQRYGDQLQILMIDVDQAQGAALYREAIAVYAIPEARRGVPTMIISDTVLVGSVEIPQRLPGLIETLLARGGSDWPPIPGLADLLATVPTSAPAPPTLPPATAETPPFLRDLPANALAVVVLAGMLLTVMWAGITWSRPAQPPTRWRDRSIPLLAIGGMAVAAYLTFIETTGAPALCGPVGDCNAVQQSEFARLFGTIPVGAAGVAGYGAILIVWIVAHLLPGTSGERAALLLPALALIGTLFSIYLTFLEPFVIGATCLWCLTSAVIMTGLLWLSMPYRQRSTSRGYARR
modifications: Roseiflexus sp. RS-1
support of carboxylation of the reporter protein with KO as substrate ([3]; 5 μM KO): only MT-VKORH supported carboxylation | activity in reducing vitamin K to KH2 to support carboxylation [4]: significant activity
